Results taken from PMC3887213 (2013).

B1: LRRK2 RocCOR tandem domain (LexA-BD bait, wild type) [human] / itself (parent complex)
chain: KAVPYNRMKLMIVGNTGSGKTTLLQQLMKTKKSDLGMQSATVGIDVKDWPIQIRDKRKRDLVLNVWDFAGREEFYSTHPHFMTQRALYLAVYDLSKGQAEVDAMKPWLFNIKARASSSPVILVGTHLDVSDEKQRKACMSKITKELLNKRGFPAIRDYHFVNATEESDALAKLRKTIINESLNFKIRDQLVVGQLIPDCYVELEKIILSERKNVPIEFPVIDRKRLLQLVRENQLQLDENELPHAVHFLNESGVLLHFQDPALQLSDLYFVEPKWLCKIMAQILTVKVEGCPKHPKGIISRRDVEKFLSKKRKFPKNYMSQYFKLLEKFQIALPIGEEYLLVPSSLSDHRPVIELPHCENSEIIIRLYEMPYFPMGFWSRLINRLLEISPYMLSGRERALRPNRMYWRQGIYL

Variants of: B1
Test: quantitative yeast two-hybrid (Q-YTH); n = 6; read off a plot

Row | Variant | percent of parent [%]
1 | KAVPYNRMKLMIVGNAGSGKTTLLQQLMKTKKSDLGMQSATVGIDVKDWPIQIRDKRKRDLVLNVWDFAGREEFYSTHPHFMTQRALYLAVYDLSKGQAEVDAMKPWLFNIKARASSSPVILVGTHLDVSDEKQRKACMSKITKELLNKRGFPAIRDYHFVNATEESDALAKLRKTIINESLNFKIRDQLVVGQLIPDCYVELEKIILSERKNVPIEFPVIDRKRLLQLVRENQLQLDENELPHAVHFLNESGVLLHFQDPALQLSDLYFVEPKWLCKIMAQILTVKVEGCPKHPKGIISRRDVEKFLSKKRKFPKNYMSQYFKLLEKFQIALPIGEEYLLVPSSLSDHRPVIELPHCENSEIIIRLYEMPYFPMGFWSRLINRLLEISPYMLSGRERALRPNRMYWRQGIYL [chain 1 T16A] | ~93
2 | KAVPYNRMKLMIVGNDGSGKTTLLQQLMKTKKSDLGMQSATVGIDVKDWPIQIRDKRKRDLVLNVWDFAGREEFYSTHPHFMTQRALYLAVYDLSKGQAEVDAMKPWLFNIKARASSSPVILVGTHLDVSDEKQRKACMSKITKELLNKRGFPAIRDYHFVNATEESDALAKLRKTIINESLNFKIRDQLVVGQLIPDCYVELEKIILSERKNVPIEFPVIDRKRLLQLVRENQLQLDENELPHAVHFLNESGVLLHFQDPALQLSDLYFVEPKWLCKIMAQILTVKVEGCPKHPKGIISRRDVEKFLSKKRKFPKNYMSQYFKLLEKFQIALPIGEEYLLVPSSLSDHRPVIELPHCENSEIIIRLYEMPYFPMGFWSRLINRLLEISPYMLSGRERALRPNRMYWRQGIYL [chain 1 T16D] | ~97
3 | KAVPYNRMKLMIVGNTGSGKTTLLQQLMKTKKSDLGMQSATVGIDVKDWPIQIRDKRKRDLVLNVWDFAGREEFYSTHPHFMTQRALYLAVYDLSKGQAEVDAMKPWLFNIKARASSSPVILVGTHLDVSDEKQRKACMSKITKELLNKRGFPAIRDYHFVNADEESDALAKLRKTIINESLNFKIRDQLVVGQLIPDCYVELEKIILSERKNVPIEFPVIDRKRLLQLVRENQLQLDENELPHAVHFLNESGVLLHFQDPALQLSDLYFVEPKWLCKIMAQILTVKVEGCPKHPKGIISRRDVEKFLSKKRKFPKNYMSQYFKLLEKFQIALPIGEEYLLVPSSLSDHRPVIELPHCENSEIIIRLYEMPYFPMGFWSRLINRLLEISPYMLSGRERALRPNRMYWRQGIYL [chain 1 T164D] | ~98
4 | KAVPYNRMKLMIVGNTGSGKTTLLQQLMKTKKSDLGMQSATVGIDVKDWPIQIRDKRKRDLVLNVWDFAGREEFYSTHPHFMTQRALYLAVYDLSKGQAEVDAMKPWLFNIKARASSSPVILVGTHLDVSDEKQRKACMSKITKELLNKRGFPAIRDYHFVNAAEESDALAKLRKTIINESLNFKIRDQLVVGQLIPDCYVELEKIILSERKNVPIEFPVIDRKRLLQLVRENQLQLDENELPHAVHFLNESGVLLHFQDPALQLSDLYFVEPKWLCKIMAQILTVKVEGCPKHPKGIISRRDVEKFLSKKRKFPKNYMSQYFKLLEKFQIALPIGEEYLLVPSSLSDHRPVIELPHCENSEIIIRLYEMPYFPMGFWSRLINRLLEISPYMLSGRERALRPNRMYWRQGIYL [chain 1 T164A] | ~110
